Molecular target: T1, CREB (Homo sapiens (Human), UniProt P16220 1-327)
T1 construct: also called CREB1
Test: co-immunoprecipitation from HEK293 cells, Western blot

T1 sequence (P16220 other isoform, or with tags, fused parts or gaps): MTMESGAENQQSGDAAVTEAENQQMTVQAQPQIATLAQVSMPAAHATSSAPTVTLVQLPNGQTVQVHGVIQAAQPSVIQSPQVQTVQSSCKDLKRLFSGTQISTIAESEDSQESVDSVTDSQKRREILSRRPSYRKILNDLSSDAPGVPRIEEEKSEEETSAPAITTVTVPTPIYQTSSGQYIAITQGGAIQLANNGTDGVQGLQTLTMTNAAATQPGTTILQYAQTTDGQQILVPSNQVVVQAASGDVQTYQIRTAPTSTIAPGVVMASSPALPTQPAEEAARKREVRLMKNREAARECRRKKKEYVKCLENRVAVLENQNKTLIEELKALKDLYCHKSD

binding result: no binding
B1: Flag-tagged dominant-negative NFIL3 (other)
chain: MDYKDDDDKHMASMTGGQQMGRDPDLEQRAEELARENEELEKEAEELEQELAELENKLIALGEENATLKAELLSLKLKFGLISSTVYAQEIQKLSNSTAVYFQDYQTSKAAVSSYVDEHEPAMVAGSCISVIKHSPQSSLSDVSEVSSVEHTQESPAQGGCRSPENKFPVIKQEPVELESFARESREERGAYSASIYQSYMGSSFSTYSHSPPLLQVHGSTSNSPRTSEADEGVVGKSSDGEDEQQVPKGPIHSPVELQRVHATVVKVPEVNPSALPHKLRIKAKAMQVKVEALDSEFEGMQKLSSPADALAKRHFDLEKHGASGTAHSSLPPFSVQVTNIQDWSLRSEHWHHKELGGKTQGTFKTGVVEVKDSGYKVSEAENLYLKQGVANLSAEVVSLKRFIATQPISASDSR
notes: Expressed in HEK293 cells from modified pcDNA3.1; Species of the NFIL3 portion is inferred from the rat cDNA named in the same paragraph; also called DN-NFIL3; dominant-negative NFIL3 protein

— patent publication US20100273865A1 (VERENIGING VOOR CHRISTELIJK HOGER ONDERWIJS …, published 2010)
